This note sets out measurements from patent US20230355720A1, “PHARMACEUTICAL COMPOSITION FOR PREVENTING OR TREATING BONE DISEASES, COMPRISING TRIPLE AGONIST OR CONJUGATE THEREOF HAVING ACTIVITY WITH RESPECT TO ALL OF GLUCAGON, GLP-1 AND GLP RECEPTORS” (HANMI PHARM. CO., LTD., priority 2020, published 2023).

The chains are these.
T1: human GIP receptor (human, UniProt P48546 22-466)
T1 sequence (looked up): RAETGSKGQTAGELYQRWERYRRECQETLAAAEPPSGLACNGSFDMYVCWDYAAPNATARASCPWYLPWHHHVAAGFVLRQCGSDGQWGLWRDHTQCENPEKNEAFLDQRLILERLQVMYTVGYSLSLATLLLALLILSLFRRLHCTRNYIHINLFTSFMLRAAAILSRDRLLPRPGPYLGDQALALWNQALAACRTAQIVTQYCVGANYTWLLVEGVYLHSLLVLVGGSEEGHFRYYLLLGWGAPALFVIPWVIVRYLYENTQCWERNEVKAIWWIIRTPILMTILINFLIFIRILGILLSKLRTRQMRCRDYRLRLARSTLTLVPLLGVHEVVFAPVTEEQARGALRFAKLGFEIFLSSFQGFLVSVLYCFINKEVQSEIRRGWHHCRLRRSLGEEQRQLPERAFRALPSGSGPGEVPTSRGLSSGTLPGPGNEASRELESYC

B1: triple agonist of SEQ ID NO: 81 (peptide)
peptide: {Acetyl(2-(4-imidazolyl))}-[Aib]QGTFTSDYSKYLDEKRQKEFVQWLLNTC
modifications: bridge 15-19; numbers in words are those of the source; also: ring between positions 16 and 20, type not given here
B2: triple agonist of SEQ ID NO: 84 (peptide)
peptide: {Acetyl(2-(4-imidazolyl))}-[Aib]EGTFTSDYSIAMDEIHQKDFVDWLLAEC
modifications: bridge 15-19; numbers in words are those of the source; also: ring between positions 16 and 20, type not given here
B3: triple agonist of SEQ ID NO: 86 (peptide)
peptide: {Acetyl(2-(4-imidazolyl))}-[Aib]QGTFTSDYSKYLDEKRQKEFVNWLLAQC
modifications: bridge 15-19; numbers in words are those of the source; also: ring between positions 16 and 20, type not given here
B4: triple agonist of SEQ ID NO: 82 (peptide)
peptide: {Acetyl(2-(4-imidazolyl))}-[Aib]QGTFTSDYSKYLDEKRQKEFVQWLLDTC
modifications: bridge 15-19; numbers in words are those of the source; also: ring between positions 16 and 20, type not given here

Bridge positions count the residues as written; N and C are the ends. Square brackets hold non-standard residues; d marks the D form. Ends that are not written are not given here. * marks the point of attachment. Acetyl(2-(4-imidazolyl)) = O=C(Cc1c[nH]cn1)*; Aib = CC(C)(N)C(=O)O

human GCG receptor, sequence (P47871 26-477): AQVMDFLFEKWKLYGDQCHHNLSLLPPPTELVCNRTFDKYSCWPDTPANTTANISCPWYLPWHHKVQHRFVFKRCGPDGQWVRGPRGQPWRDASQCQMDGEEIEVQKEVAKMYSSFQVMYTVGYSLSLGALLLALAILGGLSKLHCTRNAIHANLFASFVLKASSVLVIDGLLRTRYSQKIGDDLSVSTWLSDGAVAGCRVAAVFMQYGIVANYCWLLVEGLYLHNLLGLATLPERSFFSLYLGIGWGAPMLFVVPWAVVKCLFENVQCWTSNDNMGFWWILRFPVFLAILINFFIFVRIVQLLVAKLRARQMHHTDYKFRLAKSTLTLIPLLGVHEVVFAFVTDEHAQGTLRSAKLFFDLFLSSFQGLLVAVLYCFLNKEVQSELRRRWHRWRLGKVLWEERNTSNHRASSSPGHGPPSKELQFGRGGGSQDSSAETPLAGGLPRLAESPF

For the first test, the target named is human GLP-1 receptor (human, UniProt P43220 24-463). Description: cell-based or functional assay.
On to B1, for which the “In vitro activity (%) compared with native peptide, vs GLP-1” value (“In vitro activity (%) … vs GLP-1” for short) is 7.8%.
[Acetyl(2-(4-imidazolyl))][Aib]QGTFTSDYSIAMDEIHQKDFVNWLLAQC (bridge 16-20; not fully specified) [triple agonist of SEQ ID NO: 85]: the “In vitro activity (%) … vs GLP-1” value worked out at 4.3%.
As for H[Aib]QGTFTSDYSKYLDEKRQKEFVQWLLDTKC (bridge 16-20; also: ring between positions 16 and 20, type not given here) [triple agonist of SEQ ID NO: 78], the “In vitro activity (%) … vs GLP-1” value worked out at 51%.
For [Acetyl(2-(4-imidazolyl))][Aib]EGTFTSDYSIAMDEIHQKDFVNWLLAQC (bridge 16-20; not fully specified) [triple agonist of SEQ ID NO: 83], the “In vitro activity (%) … vs GLP-1” value was determined as 47.3%.
With H[Aib]EGTFTSDYSIAMDEIHQKDFVNWLLAQKC (bridge 16-20; not fully specified) [triple agonist of SEQ ID NO: 79], the “In vitro activity (%) … vs GLP-1” value amounted to 41.5%.
Turning to B2, the “In vitro activity (%) … vs GLP-1” value is 4.2%.
Regarding H[Aib]QGTFTSDVSKYLDGQAAQEFVAWLLAGC [triple agonist of SEQ ID NO: 9], the “In vitro activity (%) … vs GLP-1” value was 32.1%.
Take B3: the “In vitro activity (%) … vs GLP-1” value worked out at 28.4%.
On to B4, for which the “In vitro activity (%) … vs GLP-1” value was found to be 9.5%.

For the next test, the target named is T1, human GIP receptor. Description: cell-based or functional assay.
On to B1, for which the “In vitro activity (%) compared with native peptide, vs GIP” value (shortened to “In vitro activity (%) … vs GIP”) was less than 0.1%.
Same read-out and setting: to [Acetyl(2-(4-imidazolyl))][Aib]QGTFTSDYSIAMDEIHQKDFVNWLLAQC (bridge 16-20; not fully specified) [triple agonist of SEQ ID NO: 85] belongs 0.3%; to H[Aib]QGTFTSDYSKYLDEKRQKEFVQWLLDTKC (bridge 16-20; also: ring between positions 16 and 20, type not given here) [triple agonist of SEQ ID NO: 78], 0.12%; to [Acetyl(2-(4-imidazolyl))][Aib]EGTFTSDYSIAMDEIHQKDFVNWLLAQC (bridge 16-20; not fully specified) [triple agonist of SEQ ID NO: 83], 0.4%.
On to H[Aib]EGTFTSDYSIAMDEIHQKDFVNWLLAQKC (bridge 16-20; not fully specified) [triple agonist of SEQ ID NO: 79], for which the “In vitro activity (%) … vs GIP” value came out at 1.4%.
For the molecule B2, the “In vitro activity (%) … vs GIP” value was less than 0.1%.
With H[Aib]QGTFTSDVSKYLDGQAAQEFVAWLLAGC [triple agonist of SEQ ID NO: 9], the “In vitro activity (%) … vs GIP” value was less than 0.1%.
The same measure, in the same setting: then B3, with 0.2%; and B4, with less than 0.1%.

A further test addresses human GCG receptor (human, UniProt P47871 26-477). Nature of the test: cell-based or functional assay.
As to B1, the “In vitro activity (%) compared with native peptide, vs Glucagon” value (shortened to “In vitro activity (%) … vs Glucagon”) came to 0.3%.
Take [Acetyl(2-(4-imidazolyl))][Aib]QGTFTSDYSIAMDEIHQKDFVNWLLAQC (bridge 16-20; not fully specified) [triple agonist of SEQ ID NO: 85]: the “In vitro activity (%) … vs Glucagon” value is less than 0.1%.
In the case of H[Aib]QGTFTSDYSKYLDEKRQKEFVQWLLDTKC (bridge 16-20; also: ring between positions 16 and 20, type not given here) [triple agonist of SEQ ID NO: 78], the “In vitro activity (%) … vs Glucagon” value stood at 14%.
Regarding [Acetyl(2-(4-imidazolyl))][Aib]EGTFTSDYSIAMDEIHQKDFVNWLLAQC (bridge 16-20; not fully specified) [triple agonist of SEQ ID NO: 83], the “In vitro activity (%) … vs Glucagon” value worked out at 1.3%.
Take H[Aib]EGTFTSDYSIAMDEIHQKDFVNWLLAQKC (bridge 16-20; not fully specified) [triple agonist of SEQ ID NO: 79]: the “In vitro activity (%) … vs Glucagon” value was 4.9%.
Turning to B2, the “In vitro activity (%) … vs Glucagon” value is less than 0.1%.
Same read-out and setting: to H[Aib]QGTFTSDVSKYLDGQAAQEFVAWLLAGC [triple agonist of SEQ ID NO: 9] belongs 0.13%.
Turning to B3, the “In vitro activity (%) … vs Glucagon” value was determined as 0.4%.
Same read-out and setting: then B4, with 1.1%.
